# Experimental data: US20240158497A1 (published 2024)
# T1: Macaca fascicularis GP130 extracellular domain expressed with a C-terminal myc-myc-hexahistidine tag (Macaca fascicularis, UniProt P40189 23-619 (human entry))
# T1 construct: Monomeric reagent; also called mfGP130-mmH; mfGP130-MMH
# T1 chain: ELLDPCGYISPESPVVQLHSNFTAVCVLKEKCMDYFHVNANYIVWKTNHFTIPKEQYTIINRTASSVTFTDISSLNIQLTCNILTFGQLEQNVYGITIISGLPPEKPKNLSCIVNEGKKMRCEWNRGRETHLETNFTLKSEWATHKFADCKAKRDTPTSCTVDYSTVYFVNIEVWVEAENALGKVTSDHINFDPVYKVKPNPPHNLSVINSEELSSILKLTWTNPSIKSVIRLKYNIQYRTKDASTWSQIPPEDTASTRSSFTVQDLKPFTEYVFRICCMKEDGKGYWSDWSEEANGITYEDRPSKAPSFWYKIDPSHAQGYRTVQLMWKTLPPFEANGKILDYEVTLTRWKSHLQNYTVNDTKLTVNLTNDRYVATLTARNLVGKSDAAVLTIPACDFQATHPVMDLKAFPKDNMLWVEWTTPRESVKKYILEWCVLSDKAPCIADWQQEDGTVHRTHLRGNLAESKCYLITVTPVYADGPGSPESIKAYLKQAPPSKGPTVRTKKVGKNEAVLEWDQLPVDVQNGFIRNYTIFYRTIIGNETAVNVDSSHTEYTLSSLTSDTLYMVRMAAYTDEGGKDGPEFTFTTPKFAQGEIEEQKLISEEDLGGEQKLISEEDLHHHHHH
# Experiments:
# [1] = target: T1, Macaca fascicularis GP130 extracellular …; test: SPR (Biacore 4000), mAb captured on anti-human Fc, 25 C
# Procedure: (§1) Equilibrium dissociation constant (KD) for different GP130 reagents binding to purified anti-GP130 monoclonal antibodies were determined using a real-time surface plasmon resonance based Biacore 4000 biosensor. All binding studies were performed in 10 mM HEPES, 150 mM NaCl, 3 mM EDTA, and 0.05% v/v Surfactant Tween-20, pH 7.4 (HBS-ET) running buffer at 25° C. and 37° C. The Biacore sensor surface was first derivatized by amine coupling with a monoclonal mouse anti-human Fc antibody (GE, #BR-1008-39) to capture anti-GP130 monoclonal antibodies. […] Reagents tagged with “mmH” are monomeric, whereas reagents tagged with “mFc” are dimeric. Thus, for example, “hGP130-mmH” is also referred to as “monomeric human GP130,” and “hGP130-mFc” is also referred to as “dimeric human GP130.”
# (§2) The association rate (k a) and dissociation rate (kd) were determined by fitting the real-time binding sensorgrams to a 1:1 binding model with mass transport limitation using Scrubber 2.0c curve-fitting software. Binding dissociation equilibrium constant (KD) and dissociative half-life (t ½) were calculated from the kinetic rates as: […]
# [2] = target: T1, Macaca fascicularis GP130 extracellular …; test: SPR (Biacore 4000), mAb captured on anti-human Fc, 37 C
# Procedure: as §1, §2
# [3] = target: T2, human GP130 extracellular domain expressed with a C-terminal myc-myc-hexahistidine tag (human, UniProt P40189 23-619); test: as above
# T2 construct: Monomeric reagent; also called hGP130-mmH; hGP130-MMH
# Procedure: as §1, §2
Binder,100 nM Ag Bound [1] [RU],Kd [1] [nM],koff [1] [s⁻¹],kon [1] [M⁻¹ s⁻¹],t½ [1] [min],100 nM Ag Bound [2] [RU],Kd [2] [nM],koff [2] [s⁻¹],kon [2] [M⁻¹ s⁻¹],t½ [2] [min],100 nM Ag Bound [3] [RU],Kd [3] [nM],koff [3] [s⁻¹],kon [3] [M⁻¹ s⁻¹],t½ [3] [min],binding result [1]
"MAb16662 (antibody, V domains shown) VH: EVQLVESGGGLVQPGGSLRLSCTASGFTFSNYAIFWVRQAPGKGLEYVSGISNNGVTKYYADSVRDRFTISRDNSRNTVSIQMDSLRTEDMAVYYCARENWGSDDGFDIWGQGTMVTVSS VL: not shown",15,184,0.038,207000,0.3,14,167,0.0592,355000,0.2,17,134,0.0585,436000,0.2,–
"MAb16666 (antibody, V domains shown) VH: EVQLVESGGGLVQSGGSLRLSCAASGFTFSRYEMNWVRQAPGKGLEWVAYISNTGTTRDYSDSVKGRFTISRDNAKNSLYLQMSSLRVEDTAVYYCVREKFSGTSDWFDPWGQGTLVTVSS VL: not shown",123,18.3,0.0053,290000,2.2,90,24.7,0.0131,528000,0.9,104,17.1,0.0101,588000,1.1,–
"MAb16659 (antibody, V domains shown) VH: QVQLVQSGPEVKKPGSSVKVSCKASGGTIDRNEITWVRQAPGQGLEWMGVIIPILGEAHYERKFQGRLTITMDESTSTAYMELSNLRSEDTAVYYCARERAARGYLDYWGQGTLVTVSS VL: not shown",74,0.812,0.00044,542000,26,78,2.34,0.00174,747000,7,82,1.84,0.00171,928000,7,–
"MAb16669 (antibody, V domains shown) VH: EVQLVESGGGLVQPGGSLRLSCAASGFTFSSYAMNWVRQAPGKGLEWVSAISGSGDSTYYTDSVKGRFTISRDNSKNTLYLQMNTLRAEDTAVYYCAKEEIVMLVGATPGWFDPWGQGTLVTVSS VL: not shown",3,–,–,–,–,8,–,–,–,–,25,19.3,0.00106,55100,11,no binding (tested: 100 nM)
"MAb16676 (antibody, V domains shown) VH: QVQLVQSGAEVMKPGASVKVSCRASGYTFSSYDINWVRQAPGQGLEWMGWISTATGNTNYPQKVQGRVTMTTDTSTNTAYMELRSLRSDDTAVYYCTREGNSKGWLDPWGQGTLVTVSS VL: not shown",49,2.2,0.000597,272000,19,48,7.12,0.00243,341000,5,52,6.01,0.00236,393000,5,–
"MAb16656 (antibody, V domains shown) VH: EVQLVESGGGLVQPGRSLRLSCAASGFTLDDFAMHWVRQAPGKGLEWVSGISWNSGNIGYADSVKGRFTISRDNARNSLYLQMNSLRAEDTALYYCTSGYYLYYAMDVWGQGTTVTVSS VL: not shown",42,19,0.000846,44400,14,47,61.3,0.00411,67000,2.8,50,60.7,0.00426,70100,2.7,–
"MAb16673 (antibody, V domains shown) VH: EVQLVQSGAEVKKPGESLKISCKGSGYSFTSYWIDWVRQMPGKGLEWMGIIYPDDSDTRYSPSFQGQVTMSVDKSISTAYLQWSSLKASDTAIYYCARHERGIVEAGTDYYYYYGMDVWGQGTTVTVSS VL: not shown",86,22.2,0.00693,312000,1.7,64,34.1,0.0211,617000,0.5,40,75.4,0.0404,536000,0.3,–
"MAb16664 (antibody, V domains shown) VH: QVQLVQSGTEVKKPGSSVKVSCKASGGTFSTYPINWVRQAPGQGLEWMGGIIPIFGTASYAQKFQGRVAITTDESTSTAYMELNSLRSEDTAVYYCARERPNWGSNDYWGQGTLVTVSS VL: not shown",13,3.21,0.00175,543000,7,16,11.6,0.00788,680000,1.5,16,14.2,0.00826,580000,1.4,–
"MAb16637 (antibody, V domains shown) VH: QVQLVQSGAEVKKPGASVKVSCKASGYTFTSLGISWVRQAPGQGLEWMGWISAYSGNRDYAQKFQGRVTMTTDTSTSTAYMELRSLRSDDTAVYYCARSLRFDYWGQGTLVTVSS VL: not shown",87,15.9,0.00109,68300,11,104,14.8,0.00263,178000,4,110,17.3,0.00342,197000,3,–
"MAb16682 (antibody, V domains shown) VH: EVQLVESGGGLVQPGGSLRLSCAASGFTFSTYWMNWVRQAPGKGLEWVANIKEDGSEKYYVDSVKGRFTISRDNAKNSLYLQMNSLRAEDTAVYYCAREGFGVVTYIWGQGTMVTVSS VL: not shown",20,132,0.0168,128000,0.7,15,124,0.0386,311000,0.3,16,113,0.0341,301000,0.3,–
"MAb16665 (antibody, V domains shown) VH: QVQLVESGGGVVQPGRSLRLACAASGFTFRSYGMHWVRQAPGKGLEWVAVIWYDGSNKYYTDSVKGRFTISRDNSKNTLYLQMNSLRAEDTAMYYCAIDKWATVTTYLFDYWGQGTLVTVSS VL: not shown",16,233,0.0505,217000,0.2,14,205,0.101,492000,0.1,19,164,0.0693,423000,0.2,–
"MAb16683 (antibody, V domains shown) VH: QVQLVESGGGLVKPGGSLRLSCAASGFTFSDYYMTWIRQTPGKGLDWVSYISSSGTNKYNADSVKGRFTISRDNAKNSLYLQMNSLRAEDTAVYYCVRDPPWGMDVWGQGTTVTVSS VL: not shown",59,37.4,0.00246,65700,5,43,125,0.0121,96500,1,38,117,0.0125,107000,0.9,–
